The results in this text go back to patent US20220340642A1 (Kyowa Kirin, published 2022).

Assay [1] concerns the target T1, soluble recombinant of cynomolgus monkey LIGHT (His10, GS linker, Asp74-Val240).
T1 chain: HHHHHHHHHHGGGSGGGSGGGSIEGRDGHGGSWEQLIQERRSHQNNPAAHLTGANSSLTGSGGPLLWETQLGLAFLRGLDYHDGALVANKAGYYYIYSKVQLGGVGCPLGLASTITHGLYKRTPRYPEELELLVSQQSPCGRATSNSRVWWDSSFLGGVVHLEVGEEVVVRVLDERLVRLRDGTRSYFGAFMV
The experiment in a line: BIAcore SPR. In short, it runs like this:
(§1)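 Surface plasmon resonance was used to analyse how each test molecule bound to soluble recombinant His-tagged LIGHT, TL1A or FasL of human or cynomolgus monkey origin. Runs took place in HBS-EP+ Buffer on a BIAcore T-100 or T-200 instrument (GE Healthcare). The dissociation constant (Kd, nM) was obtained from these measurements.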

The target in assay [2] is T2, soluble recombinant of cynomolgus monkey TL1A (His6, GS linker, Leu72-Leu251).
T2 chain: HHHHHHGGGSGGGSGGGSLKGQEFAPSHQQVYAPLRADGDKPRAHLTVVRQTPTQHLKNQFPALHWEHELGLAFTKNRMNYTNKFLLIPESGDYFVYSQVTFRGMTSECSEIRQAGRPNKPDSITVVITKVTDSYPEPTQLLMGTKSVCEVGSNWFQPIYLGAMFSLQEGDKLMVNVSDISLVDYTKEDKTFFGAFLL
Description: BIAcore SPR. In short, it runs like this:
as §1

Assay [3] addresses T3, soluble recombinant of cynomolgus monkey FasL (His6, Pro133-Leu280) (UniProt P63308 133-280).
T3 chain: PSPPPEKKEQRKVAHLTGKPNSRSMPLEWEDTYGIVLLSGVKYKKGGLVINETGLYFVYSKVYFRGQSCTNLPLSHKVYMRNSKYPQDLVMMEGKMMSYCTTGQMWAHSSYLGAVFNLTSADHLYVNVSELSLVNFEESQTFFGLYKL
The experiment in a line: BIAcore SPR. The method in brief: as §1

The target of assay [4] is T4, soluble recombinant of cynomolgus monkey TL1A (His6, GS linker, Leu72-Leu251) (cynomolgus monkey).
T4 construct: also called His6-cynoTL1A
T4 chain: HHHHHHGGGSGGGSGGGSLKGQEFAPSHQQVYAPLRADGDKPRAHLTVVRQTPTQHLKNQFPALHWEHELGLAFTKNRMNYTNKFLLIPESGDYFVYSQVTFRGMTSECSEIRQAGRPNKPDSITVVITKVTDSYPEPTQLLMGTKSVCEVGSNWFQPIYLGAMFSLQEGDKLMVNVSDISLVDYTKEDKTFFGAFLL
The experiment in a line: SPR, binder captured on Protein A chip. As for the experimental part:
(§2) The binding activity to human and cynomolgus monkey DcR3 ligand trimers were analyzed by the SPR method. BIAcore T-100 (GE Healthcare) was used for measurement of the binding activities to human LIGHT, cynomolgus monkey LIGHT, human TL1A and cynomolgus monkey TL1A, and BIAcore T-200 (GE Healthcare) was used for measurement of the binding activities to human FasL and cynomolgus monkey FasL. As the buffer, HBS-EP+Buffer was used.
(§3) Various DcR3 variants were injected into Series S Sensor Chip Protein A (GE Healthcare) at 10 μL/min for 30 seconds and captured. Meanwhile, the buffer containing no protein was injected into a reference flow cell. Thereafter, as an analyte, each human DcR3 ligand trimer or each cynomolgus monkey DcR3 ligand trimer diluted to 0.08 to 20 nmol/L was injected. A human LIGHT trimer, a human TL1A trimer or each cynomolgus monkey DcR3 ligand trimer was injected at the flow rate of 30 μL/min for 2 minutes to monitor the binding, and subsequently the buffer was injected for 5 minutes to monitor dissociation. A human FasL trimer was injected at 30 μL/min for 1 minute to monitor the binding, and subsequently the buffer was injected for 3 minutes to monitor dissociation. Then, 3 mol/L magnesium chloride was injected at 30 μL/min for 1 minute to perform a regeneration reaction.

Assay [5] concerns the target T5, Human His6 Fas Ligand/TNFSF6 (Cell Signaling Technology, Inc.) (human, UniProt P48023 133-281).
T5 construct: Bought; confirmed as a trimer by SEC-MALS; also called recombinant human His6 Fas Ligand; soluble human FasL trimer
T5 sequence: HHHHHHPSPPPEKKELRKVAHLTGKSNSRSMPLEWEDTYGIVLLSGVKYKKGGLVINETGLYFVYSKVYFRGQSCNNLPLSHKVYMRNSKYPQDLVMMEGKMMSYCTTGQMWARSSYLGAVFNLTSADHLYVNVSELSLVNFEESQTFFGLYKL
Description: SPR, binder captured on Protein A chip. As for the experimental part:
as §2, §3

For assay [6], the target named is T6, FLAG-LIGHT (FLAG tag, human LIGHT Asp74-Val240) (human, UniProt O43557 74-240).
T6 construct: SEC trimer fraction; also called soluble recombinant FLAG-LIGHT trimer; soluble human LIGHT trimer
Description: SPR, binder captured on Protein A chip. As for the experimental part:
as §2, §3

The target of assay [7] is T7, soluble recombinant of human TL1A (His6, GS linker, Leu72-Leu251) (human, UniProt O95150 72-251).
T7 construct: also called His6-TL1A; hTL1A
T7 sequence: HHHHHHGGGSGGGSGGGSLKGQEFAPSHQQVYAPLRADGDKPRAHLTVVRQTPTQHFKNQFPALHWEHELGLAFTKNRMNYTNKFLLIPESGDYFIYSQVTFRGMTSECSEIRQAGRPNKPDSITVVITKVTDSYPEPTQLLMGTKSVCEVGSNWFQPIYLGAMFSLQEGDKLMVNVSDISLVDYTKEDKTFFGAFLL
Description: SPR, binder captured on Protein A chip. As for the experimental part: as §2, §3

Assay [8] concerns the target T8, soluble recombinant of cynomolgus monkey FasL (His6, Pro133-Leu280) (cynomolgus monkey, UniProt P63308 133-280).
T8 construct: also called His6-cynoFasL
T8 sequence: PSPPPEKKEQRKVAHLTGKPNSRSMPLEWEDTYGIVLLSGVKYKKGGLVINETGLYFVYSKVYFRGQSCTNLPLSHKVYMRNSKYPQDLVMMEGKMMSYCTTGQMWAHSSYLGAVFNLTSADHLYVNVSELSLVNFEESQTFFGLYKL
Description: SPR, binder captured on Protein A chip. How it is done: as §2, §3

Assay [9] concerns the target T9, FLAG-cynoLIGHT (FLAG tag, cynomolgus monkey LIGHT Asp74-Val240) (cynomolgus monkey).
T9 construct: SEC trimer fraction; also called soluble cynomolgus monkey LIGHT trimer
T9 chain: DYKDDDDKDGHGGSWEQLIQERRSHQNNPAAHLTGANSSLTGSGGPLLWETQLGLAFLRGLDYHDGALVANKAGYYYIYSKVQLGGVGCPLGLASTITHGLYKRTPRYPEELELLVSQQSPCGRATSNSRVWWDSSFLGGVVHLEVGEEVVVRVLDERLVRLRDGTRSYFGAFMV
The experiment in a line: SPR, binder captured on Protein A chip. As for the experimental part: as §2, §3

In assay [10] the target is T10, membrane-bound human LIGHT (human, UniProt O43557 1-240).
T10 construct: whole, on cells; also called LIGHT/HEK293
T10 sequence (O43557 whole entry): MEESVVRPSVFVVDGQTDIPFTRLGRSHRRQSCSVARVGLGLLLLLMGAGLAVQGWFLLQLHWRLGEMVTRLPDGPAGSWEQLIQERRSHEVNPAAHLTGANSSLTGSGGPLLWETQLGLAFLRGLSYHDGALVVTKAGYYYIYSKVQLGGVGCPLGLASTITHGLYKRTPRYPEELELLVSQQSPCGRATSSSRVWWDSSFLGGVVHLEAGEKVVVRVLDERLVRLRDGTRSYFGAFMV
The experiment in a line: flow cytometry on expressing cells. In short, it runs like this: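 Binding was measured by flow cytometry on HEK293 cells forced to express membrane-bound LIGHT and on cell lines expressing N-terminally Met/FLAG-tagged TL1A or FasL from a CMV-promoter pClpuro vector. Cells at 1×10⁵ cells/well received 1 or 10 μg/mL protein on ice for 1 hour. After washing, cells were stained on ice for 1 hour with LIVE/DEAD Fixable Aqua and R-phycoerythrin goat F(ab′)₂ anti-human IgG (10 ng/mL, 0.1 or 1 μg/mL). Fluorescence was read on a FACS Fortessa.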

B1: chimera A-E57K-Fc (Eg1S YTE) (Fc fusion)
chain: ETFPPKYLHYDEETSHQLLCDKCPPGTYLKQHCTAKWKTVCAPCPPRHYTQFWNYLKRCRYCNVLCGEREEEARACHATHNRACRCRTGFFAHAGFCLEHASCPPGAGVIAPGTPSQNTQCQPCPDGFFSNETSSKAPCRKHTNCSVFGLLLTQKGNATHDNICSGNSESTQKEPKSSDKTHTCPPCPAPELLGGPSVFLFPPKPKDTLYITREPEVTCVVVDVSHEDPEVKFNWYVDGVEVHNAKTKPREEQYNSTYRVVSVLTVLHQDWLNGKEYKCKVSNKALPAPIEKTISKAKGQPREPQVYTLPPSRDELTKNQVSLTCLVKGFYPSDIAVEWESNGQPENNYKTTPPVLDSDGSFFLYSKLTVDKSRWQQGNVFSCSVMHEALHNHYTQKSLSLSPGK
Regarding B1, the values for the Kd in [1], in [2] and in assay [3] were 0.26 nM, 0.31 nM and 1.1 nM, respectively. The binding result in assay [4], in [5], in [6], in assay [7], in [8] and in [9] was “binds” each time. Further, the binding result in [10] is listed as “binds”.

B2: chimera A-E57R-Fc (Eg1S LALAGANA) (Fc fusion)
chain: ETFPPKYLHYDEETSHQLLCDKCPPGTYLKQHCTAKWKTVCAPCPPRHYTQFWNYLRRCRYCNVLCGEREEEARACHATHNRACRCRTGFFAHAGFCLEHASCPPGAGVIAPGTPSQNTQCQPCPDGFFSNETSSKAPCRKHTNCSVFGLLLTQKGNATHDNICSGNSESTQKEPKSSDKTHTCPPCPAPEAAGAPSVFLFPPKPKDTLMISRTPEVTCVVVDVSHEDPEVKFNWYVDGVEVHNAKTKPREEQYNSTYRVVSVLTVLHQDWLNGKEYKCKVSNKALPAPIEKTISKAKGQPREPQVYTLPPSRDELTKNQVSLTCLVKGFYPSDIAVEWESNGQPENNYKTTPPVLDSDGSFFLYSKLTVDKSRWQQGNVFSCSVMHEALHAHYTQKSLSLSPGK
Consider B2, for which the Kd in assay [1] was 0.29 nM; in [2] it was 0.32 nM; in assay [3], 1.1 nM. In addition, the binding result in [4], in assay [5], in assay [6], in assay [7], in assay [8] and in assay [9] was “binds” in each case. The binding result in assay [10] is listed as “binds”.
